The values below come from publication PMC3792076, “Elucidation of Substrate Specificity in Aspergillus nidulans UDP-Galactose-4-Epimerase” (PLoS ONE, 2013).

Substrate in the series: O=c1ccn([C@@H]2O[C@H](COP(=O)(O)OP(=O)(O)O[C@H]3O[C@H](CO)[C@H](O)[C@H](O)[C@H]3O)[C@@H](O)[C@H]2O)c(=O)[nH]1
As to the kind of experiment: purified protein. Conditions: 2 mM NAD+, 100 mM Tris-HCl pH 8.5, 25°C. In kind it is biochemical, Aspergillus nidulans.

Residue numbers refer to the chain shown, from its start. Numbers in names are those of the source.

B1: AnGALE (Aspergillus nidulans FGSC A4) (protein)
chain: MPSGSVLVTGGTGYIGSFTTLALLEAGYKVVVADNLYNSSAEALNRIELISGKKAEFAQLDVTDEAAFDKVFEAHPDIDSVIHFAALKAVGESGEKPLDYYHVNVYGTICLLRSMVRHNVTNIVFSSSATVYGDATRFPDMIPIPEHCPLGPTNPYGNTKFAIELAITDVINAQRNNAKKAGNETEAAKWNGALLRYFNPAGAHPSGIMGEDPQGVPYNLLPLLAQVATGKREKLLVFGDDYASHDGTAIRDYIHILDLADGHLKALNYLRANNPGVRAWNLGTGRGSTVYEMIRAFSKAVGRDLPYEVAPRRAGDVLNLTSNPTRANTELGWKAQRTLEQACEDLWLWTKNNPQGYRQQPPAELLEQLKK
notes: N-terminal His-TEV tag (p-HIS-TEV-GALE), not cleaved for crystallization; E. coli BL21-Gold; homodimer
For B1, the Km is 110 ± 10 µM, the kcat came out at 12.8 ± 0.6 s⁻¹ and the kcat/Km was found to be 116000 ± 8100 M⁻¹ s⁻¹.

B2: AnGALE (Aspergillus nidulans FGSC A4; L320Y) (protein)
chain: B1 chain with L320Y
notes: as for B1
Turning to B2, the Km came out at 60 ± 10 µM, the kcat was 1.5 ± 0.1 s⁻¹ and the kcat/Km is 26800 ± 1900 M⁻¹ s⁻¹.

A word on the Km: it is the substrate concentration at which the rate is half of its maximum. Usually kcat stands for the maximal rate divided by the concentration of active sites. Usually kcat/Km stands for the second-order rate constant that governs catalysis at low substrate concentration.
